{
  "source": "patent US20240376166A1",
  "about": "(BOSTON MEDICAL CENTER, published 2024)",
  "proteins": {"B1": {"name": "flag-tagged NPM normal mimic (T86A-S88A-T95A-T234E-S242E) (other)", "chain": "MEDSMDMDMSPLRPQNYLFGCELKADKDYHFKVDNDENEHQLSLRTVSLGAGAKDELHIVEAEAMNYEGSPIKVTLATLKMSVQPAVALGGFEIAPPVVLRLKCGSGPVHISGQHLVAVEEDAESEDEEEEDVKLLSISGKRSAPGGGSKVPQKKVKLAADEDDDDDDEEDDDEDDDDDDFDDEEAEEKAPVKKSIRDTPAKNAQKSNQNGKDSKPSSTPRSKGQESFKKQEKEPKTPKGPESVEDIKAKMQASIEKGGSLPKVEAKFINYVKNCFRMTDQEAIQDLWQWRKSL", "notes": "Lentiviral expression in primary PTEC; also called normal mimic NPM; NrNPM; not shown: amino-terminal flag tag"}},
  "biological_target": "the molecule itself",
  "experiment": "native gel of lysates from non-stressed cells (self-association; cells also hold endogenous NPM); FIG. 5B",
  "data": [
    {"protein": "B1", "values": [
      {"measurement": "binding result", "value": "binds"}
    ]}
  ]
}
